The numbers were not newly measured in publication PMC6767261, which cites them from elsewhere.

The target of the series is Endothelin receptor type B (UniProt P24530). As to the kind of experiment: radioligand.
Sequence of UniProt P24530 (P24530 27-442): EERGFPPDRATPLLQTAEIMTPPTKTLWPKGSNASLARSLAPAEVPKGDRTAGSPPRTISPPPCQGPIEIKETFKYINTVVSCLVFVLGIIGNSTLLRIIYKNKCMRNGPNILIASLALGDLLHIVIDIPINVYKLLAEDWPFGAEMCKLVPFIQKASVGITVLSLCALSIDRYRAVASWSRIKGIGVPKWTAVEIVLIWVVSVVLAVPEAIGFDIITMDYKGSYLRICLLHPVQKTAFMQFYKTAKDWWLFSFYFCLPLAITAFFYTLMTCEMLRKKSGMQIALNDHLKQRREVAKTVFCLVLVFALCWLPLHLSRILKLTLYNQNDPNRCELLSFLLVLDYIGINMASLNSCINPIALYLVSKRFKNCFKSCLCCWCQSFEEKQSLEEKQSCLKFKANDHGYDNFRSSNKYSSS

A word on the Kd: it is the concentration at which binding is half-saturated. Consider “Endothelin-1 ([125I]-ET-1), ciliary muscle (from UniProt P05305)”, for which the Kd is 142 nM.

With “Endothelin-1 ([125I]-ET-1), ciliary epithelium (from UniProt P05305)”, the Kd is 54.5 nM.
